Results published in patent US20170307612.

Assays:
[1] = tested on: hemagglutinin of highly pathogenic influenza virus H5N6
[2] = tested on: hemagglutinin of lowly pathogenic influenza virus H3N2 (Experimental Example 4)
[3] = tested on: hemagglutinin of lowly pathogenic influenza virus H3N8
[4] = tested on: hemagglutinin of highly pathogenic influenza virus H5N1_01
[5] = tested on: hemagglutinin of lowly pathogenic influenza virus H7N7
[6] = tested on: hemagglutinin of lowly pathogenic influenza virus H1N1 (Experimental Example 4)
[7] = tested on: hemagglutinin of lowly pathogenic influenza virus H9N2_01
[8] = tested on: hemagglutinin of lowly pathogenic influenza virus H2N4
[9] = tested on: hemagglutinin of lowly pathogenic influenza virus H1N1_01
[10] = tested on: hemagglutinin of lowly pathogenic influenza virus H9N2_02
[11] = tested on: hemagglutinin of lowly pathogenic influenza virus H2N1
[12] = tested on: hemagglutinin of lowly pathogenic influenza virus H1N1_02
[13] = tested on: hemagglutinin of lowly pathogenic influenza virus H7N9
[14] = tested on: hemagglutinin of lowly pathogenic influenza virus H9N2 (Experimental Example 4)
[15] = tested on: hemagglutinin of highly pathogenic influenza virus H5N1_02

trypsin
fluorescence intensity of probe of Preparation Example 1, trypsin only, pH 5.5 [1]: 2740
fluorescence intensity of probe of Preparation Example 2, trypsin only, pH 5.5 [1]: 2760
fluorescence intensity of probe of Preparation Example 3, trypsin only, pH 5.5 [1]: 2030
fluorescence intensity of probe of Example 4-1, trypsin only, pH 5.5 [2]: 19,192
fluorescence intensity of probe of Example 4-2, trypsin only, pH 5.5 [2]: 16,812
fluorescence intensity of probe of Example 4-3, trypsin only, pH 5.5 [2]: 16,362
fluorescence intensity of probe of Preparation Example 1, trypsin only, pH 5.5 [3]: 3600
fluorescence intensity of probe of Preparation Example 2, trypsin only, pH 5.5 [3]: 4070
fluorescence intensity of probe of Preparation Example 3, trypsin only, pH 5.5 [3]: 3400
fluorescence intensity of probe of Preparation Example 1, trypsin only, pH 5.5 [4]: 2950
fluorescence intensity of probe of Preparation Example 2, trypsin only, pH 5.5 [4]: 4000
fluorescence intensity of probe of Preparation Example 3, trypsin only, pH 5.5 [4]: 3410
fluorescence intensity of probe of Preparation Example 1, trypsin only, pH 5.5 [5]: 2600
fluorescence intensity of probe of Preparation Example 2, trypsin only, pH 5.5 [5]: 2070
fluorescence intensity of probe of Preparation Example 3, trypsin only, pH 5.5 [5]: 2510
fluorescence intensity of probe of Example 4-1, trypsin only, pH 5.5 [6]: 17,689
fluorescence intensity of probe of Example 4-2, trypsin only, pH 5.5 [6]: 17,581
fluorescence intensity of probe of Example 4-3, trypsin only, pH 5.5 [6]: 15,674
fluorescence intensity of probe of Preparation Example 1, trypsin only, pH 5.5 [7]: 3750
fluorescence intensity of probe of Preparation Example 2, trypsin only, pH 5.5 [7]: 4580
fluorescence intensity of probe of Preparation Example 3, trypsin only, pH 5.5 [7]: 3510
fluorescence intensity of probe of Preparation Example 1, trypsin only, pH 5.5 [8]: 4020
fluorescence intensity of probe of Preparation Example 2, trypsin only, pH 5.5 [8]: 3090
fluorescence intensity of probe of Preparation Example 3, trypsin only, pH 5.5 [8]: 3460
fluorescence intensity of probe of Preparation Example 1, trypsin only, pH 5.5 [9]: 3350
fluorescence intensity of probe of Preparation Example 2, trypsin only, pH 5.5 [9]: 4020
fluorescence intensity of probe of Preparation Example 3, trypsin only, pH 5.5 [9]: 3720
fluorescence intensity of probe of Preparation Example 1, trypsin only, pH 5.5 [10]: 3280
fluorescence intensity of probe of Preparation Example 2, trypsin only, pH 5.5 [10]: 4720
fluorescence intensity of probe of Preparation Example 3, trypsin only, pH 5.5 [10]: 3730
fluorescence intensity of probe of Preparation Example 1, trypsin only, pH 5.5 [11]: 2210
fluorescence intensity of probe of Preparation Example 2, trypsin only, pH 5.5 [11]: 2120
fluorescence intensity of probe of Preparation Example 3, trypsin only, pH 5.5 [11]: 2060
fluorescence intensity of probe of Preparation Example 1, trypsin only, pH 5.5 [12]: 4550
fluorescence intensity of probe of Preparation Example 2, trypsin only, pH 5.5 [12]: 4720
fluorescence intensity of probe of Preparation Example 3, trypsin only, pH 5.5 [12]: 3150
fluorescence intensity of probe of Preparation Example 1, trypsin only, pH 5.5 [13]: 3990
fluorescence intensity of probe of Preparation Example 2, trypsin only, pH 5.5 [13]: 4600
fluorescence intensity of probe of Preparation Example 3, trypsin only, pH 5.5 [13]: 3250
fluorescence intensity of probe of Example 4-1, trypsin only, pH 5.5 [14]: 18,345
fluorescence intensity of probe of Example 4-2, trypsin only, pH 5.5 [14]: 18,950
fluorescence intensity of probe of Example 4-3, trypsin only, pH 5.5 [14]: 18,035
fluorescence intensity of probe of Preparation Example 1, trypsin only, pH 5.5 [15]: 2960
fluorescence intensity of probe of Preparation Example 2, trypsin only, pH 5.5 [15]: 4540
fluorescence intensity of probe of Preparation Example 3, trypsin only, pH 5.5 [15]: 4360

furin
fluorescence intensity of probe of Preparation Example 1, furin only, pH 5.5 [1]: 2420
fluorescence intensity of probe of Preparation Example 2, furin only, pH 5.5 [1]: 2720
fluorescence intensity of probe of Preparation Example 3, furin only, pH 5.5 [1]: 2250
fluorescence intensity of probe of Example 4-1, furin only, pH 5.5 [2]: 4,697
fluorescence intensity of probe of Example 4-2, furin only, pH 5.5 [2]: 4,953
fluorescence intensity of probe of Example 4-3, furin only, pH 5.5 [2]: 1,731
fluorescence intensity of probe of Preparation Example 1, furin only, pH 5.5 [3]: 399
fluorescence intensity of probe of Preparation Example 2, furin only, pH 5.5 [3]: 442
fluorescence intensity of probe of Preparation Example 3, furin only, pH 5.5 [3]: 313
fluorescence intensity of probe of Preparation Example 1, furin only, pH 5.5 [4]: 2840
fluorescence intensity of probe of Preparation Example 2, furin only, pH 5.5 [4]: 4680
fluorescence intensity of probe of Preparation Example 3, furin only, pH 5.5 [4]: 4330
fluorescence intensity of probe of Preparation Example 1, furin only, pH 5.5 [5]: 432
fluorescence intensity of probe of Preparation Example 2, furin only, pH 5.5 [5]: 401
fluorescence intensity of probe of Preparation Example 3, furin only, pH 5.5 [5]: 575
fluorescence intensity of probe of Example 4-1, furin only, pH 5.5 [6]: 3,721
fluorescence intensity of probe of Example 4-2, furin only, pH 5.5 [6]: 3,955
fluorescence intensity of probe of Example 4-3, furin only, pH 5.5 [6]: 4,344
fluorescence intensity of probe of Preparation Example 1, furin only, pH 5.5 [7]: 353
fluorescence intensity of probe of Preparation Example 2, furin only, pH 5.5 [7]: 443
fluorescence intensity of probe of Preparation Example 3, furin only, pH 5.5 [7]: 461
fluorescence intensity of probe of Preparation Example 1, furin only, pH 5.5 [8]: 426
fluorescence intensity of probe of Preparation Example 2, furin only, pH 5.5 [8]: 347
fluorescence intensity of probe of Preparation Example 3, furin only, pH 5.5 [8]: 477
fluorescence intensity of probe of Preparation Example 1, furin only, pH 5.5 [9]: 492
fluorescence intensity of probe of Preparation Example 2, furin only, pH 5.5 [9]: 374
fluorescence intensity of probe of Preparation Example 3, furin only, pH 5.5 [9]: 327
fluorescence intensity of probe of Preparation Example 1, furin only, pH 5.5 [10]: 418
fluorescence intensity of probe of Preparation Example 2, furin only, pH 5.5 [10]: 571
fluorescence intensity of probe of Preparation Example 3, furin only, pH 5.5 [10]: 306
fluorescence intensity of probe of Preparation Example 1, furin only, pH 5.5 [11]: 371
fluorescence intensity of probe of Preparation Example 2, furin only, pH 5.5 [11]: 333
fluorescence intensity of probe of Preparation Example 3, furin only, pH 5.5 [11]: 569
fluorescence intensity of probe of Preparation Example 1, furin only, pH 5.5 [12]: 594
fluorescence intensity of probe of Preparation Example 2, furin only, pH 5.5 [12]: 364
fluorescence intensity of probe of Preparation Example 3, furin only, pH 5.5 [12]: 490
fluorescence intensity of probe of Preparation Example 1, furin only, pH 5.5 [13]: 545
fluorescence intensity of probe of Preparation Example 2, furin only, pH 5.5 [13]: 461
fluorescence intensity of probe of Preparation Example 3, furin only, pH 5.5 [13]: 528
fluorescence intensity of probe of Example 4-1, furin only, pH 5.5 [14]: 3,134
fluorescence intensity of probe of Example 4-2, furin only, pH 5.5 [14]: 3,703
fluorescence intensity of probe of Example 4-3, furin only, pH 5.5 [14]: 4,218
fluorescence intensity of probe of Preparation Example 1, furin only, pH 5.5 [15]: 2130
fluorescence intensity of probe of Preparation Example 2, furin only, pH 5.5 [15]: 4840
fluorescence intensity of probe of Preparation Example 3, furin only, pH 5.5 [15]: 5000
